In paper PMC11833078 one finds stoichiometry N data, which are given here for two substances.

Assay [1] deals with Prp19-Flag (Chlamydomonas reinhardtii (endogenous)). Nature of the assay: cryo-EM structure; endogenous spliceosomes (C* complex) isolated at 4 °C by the same procedure from the Cdc5L-Flag and the Prp19-Flag knock-in strains: anti-FLAG M2 resin (20 mM HEPES-KOH pH 7.9, 150 mM NaCl, 1.5 mM MgCl2, 4% glycerol), FLAG peptide elution, 10-30% glycerol gradient with 0-0.1% glutaraldehyde; two reconstructions at 2.6 Å without obvious differences, one atomic model.

In assay [2] the target is Prp19 (Chlamydomonas reinhardtii (endogenous)). Described as above.

Prp19-Flag (natural protein): the stoichiometry N in assay [1] is 4.
Substance Prp19 (natural protein) registered a stoichiometry N in assay [2] of 4.
